According to the supplement of paper PMC10724198:
± gives the standard deviation of the averaged measurements.

system: Saccharomyces cerevisiae; experiment: protein stability index of tFT-peptide fusion (C-terminal peptide) (PSI (0-1 scale)); higher = more stable (slower turnover); conditions: genetic background: wild type; temperature: 30 C
Procedure: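 MPS profiling in S. cerevisiae of the yeast C-terminome library: the last 12 aa of each annotated ORF are fused to the C-terminus of a sfGFP-mCherry timer, after a GGGS linker. Cells are FACS-sorted into 8 mCherry/sfGFP bins and deep-sequenced. PSI runs from 0 (unstable) to 1 (stable); wild type and das1Δ backgrounds, two technical replicates each.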

| Sequence | protein stability index |
| --- | --- |
| SPPEEESQHGDV [SHB17 C-terminal 12 aa] | 0.75 ± 0.032 |
| SQQNNNGNQNRY [RNQ1 C-terminal 12 aa] | 0.6682 ± 0.0039 |
| SRSSIKNIVKPK [MRX15 C-terminal 12 aa] | 0.75 ± 0.052 |
| SSAASSQVPAST [PTK1 C-terminal 12 aa] | 0.6743 ± 0.0022 |
| SSDRSAAEKRNT [TYR1 C-terminal 12 aa] | 0.673 ± 0.039 |
| SSEEGYYIAGSI [IRC23 C-terminal 12 aa] | 0.81 ± 0.01 |
| SSGCRRLMVGYN [ERC1 C-terminal 12 aa] | 0.684 ± 0.0074 |
| SSKKNNKFRRIR [CST9 C-terminal 12 aa] | 0.714 ± 0.032 |
| SSVKKKLYPKSK [RIM11 C-terminal 12 aa] | 0.693 ± 0.073 |
| STDETPDNENKQ [SGT2 C-terminal 12 aa] | 0.67 ± 0.0077 |
| STDQLPELSFEV [TVP38 C-terminal 12 aa] | 0.722 ± 0.0051 |
| STFTLNLEDVSK [ECM12 C-terminal 12 aa] | 0.634 ± 0.016 |
| STSCDVIQSRNA [MET22 C-terminal 12 aa] | 0.692 ± 0.0075 |
| SVLSGSAEFVFY [NCA3 C-terminal 12 aa] | 0.7148 ± 0.0061 |
| SVLVCFLLRRAS [YJR087W C-terminal 12 aa] | 0.342 ± 0.0095 |
| SVLYAIDFSAAF [EMA35 C-terminal 12 aa] | 0.703 ± 0.02 |
| SVPKPSQARFSV [UTR1 C-terminal 12 aa] | 0.703 ± 0.025 |
| SYKDTKRWMFKK [PSF3 C-terminal 12 aa] | 0.715 ± 0.078 |
| SYLKGYIGCKIS [YPR092W C-terminal 12 aa] | 0.569 ± 0.033 |
| TAFGISSCRDLA [YLR163W-A C-terminal 12 aa] | 0.6829 ± 0.00097 |
| TARPFPAPNIAA [YLR349W C-terminal 12 aa] | 0.67 ± 0.016 |

| Sequence | protein stability index |
| --- | --- |
| TASQLLEVQSKS [YGL039W C-terminal 12 aa] | 0.6694 ± 0.006 |
| TDCGLETEEIDI [RAD14 C-terminal 12 aa] | 0.6823 ± 0.0022 |
| TDDNNIQTILLK [YIG1 C-terminal 12 aa] | 0.704 ± 0.044 |
| TEFEKIHRNTFN [REX4 C-terminal 12 aa] | 0.723 ± 0.033 |
| TEIDESFEMTDF [KEX1 C-terminal 12 aa] | 0.7471 ± 0.0064 |
| TGFFGKLKKLFK [CRP1 C-terminal 12 aa] | 0.724 ± 0.0086 |
| TGFKDKFLDALL [PUT4 C-terminal 12 aa] | 0.69 ± 0.011 |
| TGLAGEGDTLVT [TAG1 C-terminal 12 aa] | 0.685 ± 0.021 |
| THLQQVAVSGQA [SEC23 C-terminal 12 aa] | 0.618 ± 0.014 |
| THMKPWYRRWFW [INA17 C-terminal 12 aa] | 0.718 ± 0.018 |
| TIGWLQESLAGI [HOT1 C-terminal 12 aa] | 0.684 ± 0.029 |
| TIISKGYAKIRD [TAF4 C-terminal 12 aa] | 0.7 ± 0.049 |
| TIKKGTTLEPIA [GCD11 C-terminal 12 aa] | 0.7 ± 0.028 |
| TILHQQVNSKLH [YHR180W C-terminal 12 aa] | 0.627 ± 0.02 |
| TILLFYPPLLKR [YDR544C C-terminal 12 aa] | 0.6119 ± 0.0047 |
| TIPAAKRTKPSA [LYS20 C-terminal 12 aa] | 0.703 ± 0.014 |
| TKCSLKNSISLT [VAB2 C-terminal 12 aa] | 0.733 ± 0.086 |
| TKEAKRRAMKKK [UME6 C-terminal 12 aa] | 0.677 ± 0.013 |
| TKKANILDPDYL [FLC1 C-terminal 12 aa] | 0.728 ± 0.032 |
| TKLGEQRHLCTD [ESL2 C-terminal 12 aa] | 0.7 ± 0.013 |
| TKPNNGLNITNY [MTL1 C-terminal 12 aa] | 0.716 ± 0.046 |

| Sequence | protein stability index |
| --- | --- |
| TKSIFPSVNPSA [GPB2 C-terminal 12 aa] | 0.669 ± 0.019 |
| TLDRASNCWRGT [YBL006W-A C-terminal 12 aa] | 0.714 ± 0.062 |
| TLHDDRESKSED [CMK2 C-terminal 12 aa] | 0.694 ± 0.036 |
| TLIAAGIIRTGR [STI1 C-terminal 12 aa] | 0.702 ± 0.016 |
| TLKSTSSTNSPD [SMP1 C-terminal 12 aa] | 0.6844 ± 0.006 |
| TLVFDVELLKVN [FPR1 C-terminal 12 aa] | 0.251 ± 0.033 |
| TMNCNNADDMLF [YGR190C C-terminal 12 aa] | 0.677 ± 0.022 |
| TNVGLKLIAIAK [PPM2 C-terminal 12 aa] | 0.649 ± 0.017 |
| TNVQANSYRKVP [SDP1 C-terminal 12 aa] | 0.522 ± 0.054 |
| TPGGGGFGQYKD [OXP1 C-terminal 12 aa] | 0.677 ± 0.03 |
| TPLGPKPDIRPL [ECM4 C-terminal 12 aa] | 0.67 ± 0.016 |
| TPSKEINFDDDF [RNR4 C-terminal 12 aa] | 0.723 ± 0.041 |
| TQLRYTSRGLYR [ECM30 C-terminal 12 aa] | 0.689 ± 0.023 |
| TQSGDDYTIRLT [APM1 C-terminal 12 aa] | 0.698 ± 0.014 |
| TRPPCSPIAGYA [YOR345C C-terminal 12 aa] | 0.628 ± 0.012 |
| TSCNLNSSVVRS [YOR186C-A C-terminal 12 aa] | 0.695 ± 0.0014 |
| TSPKESFFKEVI [LPX2 C-terminal 12 aa] | 0.711 ± 0.022 |
| TTPTLPTFRTVA [FKS3 C-terminal 12 aa] | 0.6971 ± 0.0014 |
| TTTGDKKSEEKQ [TCB2 C-terminal 12 aa] | 0.69 ± 0.032 |
| TYFSFHILFHNL [YOR309C C-terminal 12 aa] | 0.221 ± 0.013 |
| TYQLIEKNRNSK [BLS1 C-terminal 12 aa] | 0.678 ± 0.01 |

| Sequence | protein stability index |
| --- | --- |
| VAAGVFIEHDEL [YOS9 C-terminal 12 aa] | 0.702 ± 0.013 |
| VASSTEQLLQEM [DYN1 C-terminal 12 aa] | 0.693 ± 0.029 |
| VATADIKNEDKN [BNA2 C-terminal 12 aa] | 0.731 ± 0.066 |
| VDAKIKKQMNRH [YJR124C C-terminal 12 aa] | 0.682 ± 0.0093 |
| VDYKTEPLQPLI [RGI2 C-terminal 12 aa] | 0.678 ± 0.0079 |
| VEGKNAAASGSA [LEU4 C-terminal 12 aa] | 0.682 ± 0.013 |
| VEKDLVSVGSTW [NAR1 C-terminal 12 aa] | 0.7073 ± 0.0067 |
| VEKVKKFVEENN [YML108W C-terminal 12 aa] | 0.651 ± 0.069 |
| VELYENQSHMQN [CDC9 C-terminal 12 aa] | 0.678 ± 0.074 |
| VEVLENLQSVLK [ATP16 C-terminal 12 aa] | 0.7134 ± 0.0029 |
| VGGIDYIKEFLS [CDA2 C-terminal 12 aa] | 0.264 ± 0.0041 |
| VGLLTAIIMSIM [PST1 C-terminal 12 aa] | 0.529 ± 0.021 |
| VGVERLLNDRFR [ARP4 C-terminal 12 aa] | 0.695 ± 0.028 |
| VKKSNWSNYFKS [PCL2 C-terminal 12 aa] | 0.682 ± 0.033 |
| VKKYSMKKKKKR [YDR320W-B C-terminal 12 aa] | 0.62 ± 0.0065 |
| VKNWSKSILGFN [MSC1 C-terminal 12 aa] | 0.666 ± 0.021 |
| VLGDCQHVTSLL [HST4 C-terminal 12 aa] | 0.7204 ± 0.0067 |
| VLREEVKKEEEN [KRS1 C-terminal 12 aa] | 0.7 ± 0.025 |
| VLVFSWRHIFCF [YJL120W C-terminal 12 aa] | 0.179 ± 0.0033 |
